± gives the uncertainty stated by the source.
B1: Histidine--tRNA ligase, cytoplasmic, residues 8 to 45; numbered along this chain, P12081 (parent)
chain: EELVKLQGERVRGLKQQKASAELIEEEVAKLLKLKAQL

Variants of: B1
Assay: abundance fitness (aPCA) (normalised: wild type 0, dead -1); higher = more abundant; growth selection in yeast, the domain comes from the species named
Conditions: Homo sapiens

| Variant | abundance fitness |
| --- | --- |
| EELVKLQGERVRGLKQQKAKAELIEEEVAKLLKLKAQL [S20K] | -0.118 ± 0.083 |
| EELVKLQGERVRGLKQQKALAELIEEEVAKLLKLKAQL [S20L] | -0.781 ± 0.1 |
| EELVKLQGERVRGLKQQKAEAELIEEEVAKLLKLKAQL [S20E] | 0.068 ± 0.12 |
| EELVKLQGERVRGLKQQKATAELIEEEVAKLLKLKAQL [S20T] | -0.132 ± 0.079 |
| EELVKLQGERVRGLKQQKAVAELIEEEVAKLLKLKAQL [S20V] | -0.693 ± 0.11 |
| EELVKLQGERVRGLKQQKADAELIEEEVAKLLKLKAQL [S20D] | 0.038 ± 0.073 |
| EELVKLQGERVRGLKQQKAFAELIEEEVAKLLKLKAQL [S20F] | -1.09 ± 0.1 |
| EELVKLQGERVRGLKQQKARAELIEEEVAKLLKLKAQL [S20R] | -0.019 ± 0.079 |
| EELVKLQGERVRGLKQQKAMAELIEEEVAKLLKLKAQL [S20M] | -0.431 ± 0.094 |
| EELVKLQGERVRGLKQQKANAELIEEEVAKLLKLKAQL [S20N] | 0.026 ± 0.081 |
| EELVKLQGERVRGLKQQKAGAELIEEEVAKLLKLKAQL [S20G] | -0.022 ± 0.091 |
| EELVKLQGERVRGLKQQKAQAELIEEEVAKLLKLKAQL [S20Q] | -0.057 ± 0.1 |
| EELVKLQGERVRGLKQQKACAELIEEEVAKLLKLKAQL [S20C] | -0.09 ± 0.095 |
| EELVKLQGERVRGLKQQKAHAELIEEEVAKLLKLKAQL [S20H] | -0.128 ± 0.11 |
| EELVKLQGERVRGLKQQCASAELIEEEVAKLLKLKAQL [K18C] | -0.112 ± 0.1 |
| EELVKLQGERVRGLKQQTASAELIEEEVAKLLKLKAQL [K18T] | -0.083 ± 0.099 |
| EELVKLQGERVRGLKQQGASAELIEEEVAKLLKLKAQL [K18G] | 0.172 ± 0.078 |
| EELVKLQGERVRGLKQQMASAELIEEEVAKLLKLKAQL [K18M] | 0.067 ± 0.31 |
| EELVKLQGERVRGLKQQFASAELIEEEVAKLLKLKAQL [K18F] | -0.45 ± 0.11 |
| EELVKLQGERVRGLKQQYASAELIEEEVAKLLKLKAQL [K18Y] | -0.342 ± 0.088 |
| EELVKLQGERVRGLKQQQASAELIEEEVAKLLKLKAQL [K18Q] | 0.066 ± 0.076 |
| EELVKLQGERVRGLKQQRASAELIEEEVAKLLKLKAQL [K18R] | -0.06 ± 0.074 |

| Variant | abundance fitness |
| --- | --- |
| EELVKLQGERVRGLKQQDASAELIEEEVAKLLKLKAQL [K18D] | 0.221 ± 0.1 |
| EELVKLQGERVRGLKQQWASAELIEEEVAKLLKLKAQL [K18W] | -0.619 ± 0.13 |
| EELVKLQGERVRGLKQQHASAELIEEEVAKLLKLKAQL [K18H] | 0.239 ± 0.11 |
| EELVKLQGERVRGLKQQVASAELIEEEVAKLLKLKAQL [K18V] | -0.236 ± 0.075 |
| EELVKLQGERVRGLKQQPASAELIEEEVAKLLKLKAQL [K18P] | 0.004 ± 0.082 |
| EELVKLQGERVRGLKQQAASAELIEEEVAKLLKLKAQL [K18A] | 0.047 ± 0.085 |
| EELVKLQGERVRGLKQQIASAELIEEEVAKLLKLKAQL [K18I] | -0.375 ± 0.14 |
| EELVKLQGERVRGLKSQKASAELIEEEVAKLLKLKAQL [Q16S] | -0.004 ± 0.078 |
| EELVKLQGERVRGLKWQKASAELIEEEVAKLLKLKAQL [Q16W] | -0.483 ± 0.12 |
| EELVKLQGERVRGLKNQKASAELIEEEVAKLLKLKAQL [Q16N] | 0.076 ± 0.1 |
| EELVKLQGERVRGLKPQKASAELIEEEVAKLLKLKAQL [Q16P] | -0.223 ± 0.089 |
| EELVKLQGERVRGLKTQKASAELIEEEVAKLLKLKAQL [Q16T] | -0.08 ± 0.095 |
| EELVKLQGERVRGLKVQKASAELIEEEVAKLLKLKAQL [Q16V] | -0.039 ± 0.1 |
| EELVKLQGERVRGLKRQKASAELIEEEVAKLLKLKAQL [Q16R] | -0.11 ± 0.082 |
| EELVKLQGERVRGLKYQKASAELIEEEVAKLLKLKAQL [Q16Y] | -0.427 ± 0.11 |
| EELVKLQGERVRGLKQMKASAELIEEEVAKLLKLKAQL [Q17M] | 0.052 ± 0.11 |
| EELVKLQGERVRGLKQHKASAELIEEEVAKLLKLKAQL [Q17H] | -0.446 ± 0.19 |
| EELVKLQGERVRGLKQWKASAELIEEEVAKLLKLKAQL [Q17W] | -0.5 ± 0.18 |
| EELVKLQGERVRGLKQGKASAELIEEEVAKLLKLKAQL [Q17G] | -0.071 ± 0.08 |
| EELVKLQGERVRGLKQIKASAELIEEEVAKLLKLKAQL [Q17I] | -0.388 ± 0.091 |
| EELVKLQGERVRGLKQLKASAELIEEEVAKLLKLKAQL [Q17L] | -0.232 ± 0.073 |
| EELVKLQGERVRGLKQSKASAELIEEEVAKLLKLKAQL [Q17S] | 0.055 ± 0.084 |

| Variant | abundance fitness |
| --- | --- |
| EELVKLQGERVRGLKQFKASAELIEEEVAKLLKLKAQL [Q17F] | -0.396 ± 0.085 |
| EELVKLQGERVRGLKQVKASAELIEEEVAKLLKLKAQL [Q17V] | -0.258 ± 0.094 |
| EELVKLQGERVRGLKQDKASAELIEEEVAKLLKLKAQL [Q17D] | -0.11 ± 0.12 |
| EELVKLQGERVRGLKQPKASAELIEEEVAKLLKLKAQL [Q17P] | -0.369 ± 0.13 |
| EELVKLQGERVRGLKQRKASAELIEEEVAKLLKLKAQL [Q17R] | -0.196 ± 0.073 |
| EELVKLQGERVRGLKQQKESAELIEEEVAKLLKLKAQL [A19E] | -0.17 ± 0.12 |
| EELVKLQGERVRGLKQQKSSAELIEEEVAKLLKLKAQL [A19S] | -0.21 ± 0.082 |
| EELVKLQGERVRGLKQQKFSAELIEEEVAKLLKLKAQL [A19F] | -0.384 ± 0.12 |
| EELVKLQGERVRGLKQQKMSAELIEEEVAKLLKLKAQL [A19M] | -0.039 ± 0.13 |
| EELVKLQGERVRGLKQQKWSAELIEEEVAKLLKLKAQL [A19W] | -0.424 ± 0.12 |
| EELVKLQGERVRGLKQQKDSAELIEEEVAKLLKLKAQL [A19D] | -0.285 ± 0.089 |
| EELVKLQGERVRGLKQQKTSAELIEEEVAKLLKLKAQL [A19T] | -0.174 ± 0.083 |
| EELVKLQGERVRGLKQQKRSAELIEEEVAKLLKLKAQL [A19R] | -0.255 ± 0.079 |
| EELVKLQGERVRGLKQQKYSAELIEEEVAKLLKLKAQL [A19Y] | -0.612 ± 0.15 |
| EELVKLQGERVRGLKQQKISAELIEEEVAKLLKLKAQL [A19I] | -0.538 ± 0.15 |
| EELVKLQGERVRGLKQQKLSAELIEEEVAKLLKLKAQL [A19L] | -0.504 ± 0.088 |
| EELVKLQGERVRGLKQQKNSAELIEEEVAKLLKLKAQL [A19N] | -0.406 ± 0.14 |
| EELVKLQGERVRGLKQQKQSAELIEEEVAKLLKLKAQL [A19Q] | -0.173 ± 0.094 |
| EELVKLQGERVRGLKQQKKSAELIEEEVAKLLKLKAQL [A19K] | -0.264 ± 0.18 |
| EELVKLQGERVRGLKQQKPSAELIEEEVAKLLKLKAQL [A19P] | -0.145 ± 0.1 |
| EELVKLQGERVRGLKQQKCSAELIEEEVAKLLKLKAQL [A19C] | -0.034 ± 0.14 |
| EELVKLQGERVRGLKQQKGSAELIEEEVAKLLKLKAQL [A19G] | -0.27 ± 0.076 |

— the Human Domainome abundance scans (Beltran et al. 2025)
